Experimental data reported in patent US20210130477A1.
Values belong to the substance of their own block, whether it stands above or below them.

What was measured:
[1] = target: human FGFR1c and human KLB co-expressed on HEK293 cells (human) (UniProt P11362); assay: cell-based or functional assay
[2] = target: hKLB.HA.6×His (human) (UniProt Q86Z14); assay: SPR (Biacore), antibody captured on anti-human Fc (REGN2567) CM5 chip, hKLB.HA.6xHis injected, 25 C, 1:1 fit
[3] = target: hFGFR1c_V5_6×His (human) (UniProt P11362); assay: SPR (Biacore), antibody captured on anti-human Fc (REGN2567) CM5 chip, hFGFR1c_V5_6xHis injected, 25 C, 1:1 fit
[4] = target: hCD63.mmh (human) (UniProt P08962); assay: SPR (Biacore) kinetics, mAb captured, hCD63.mmh as analyte
[5] = target: hFGFR3b.mmh (human) (UniProt P22607); assay: SPR (Biacore) kinetics, mAb captured, hFGFR3b.mmh as analyte
[6] = target: hAPLP2.mmh (human) (UniProt Q06481); assay: SPR (Biacore) kinetics, mAb captured, hAPLP2.mmh as analyte

UniProt P11362, sequence (P11362 22-376): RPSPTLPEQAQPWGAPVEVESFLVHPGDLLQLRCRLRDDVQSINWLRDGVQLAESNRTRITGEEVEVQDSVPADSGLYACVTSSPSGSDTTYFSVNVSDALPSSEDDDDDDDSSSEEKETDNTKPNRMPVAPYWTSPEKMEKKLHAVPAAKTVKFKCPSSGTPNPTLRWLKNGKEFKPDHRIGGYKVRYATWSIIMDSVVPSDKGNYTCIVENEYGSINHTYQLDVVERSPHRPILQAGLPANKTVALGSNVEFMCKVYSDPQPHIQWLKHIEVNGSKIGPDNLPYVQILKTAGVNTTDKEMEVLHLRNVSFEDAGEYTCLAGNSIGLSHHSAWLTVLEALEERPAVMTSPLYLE

% Act, SRE-luciferase reporter [1]: 100% | % Activity of (FGF21), SRE-luciferase reporter [1]: 100% | EC50 (M), SRE-luciferase reporter [1]: 3.4e-09 M
Substance: Recombinant human FGF21 with 6×His tag (from UniProt Q9NSA1 29-209) (ligand)

% Act, SRE-luciferase reporter [1]: 42% | agonist activity relative to hFGF21, SRE-luciferase reporter [1]: 30%
Substance: REGN4304 (bispecific antibody)

% activation normalized against soluble FGF21, SRE-luciferase reporter [1]: 19% | agonist activity relative to hFGF21, SRE-luciferase reporter [1]: 30% | 100 nM Antigen Bound (RU) [2]: 411 RU | Kd [2]: 25.5 nM | koff [2]: 0.0122 s⁻¹ | kon [2]: 476000 M⁻¹ s⁻¹ | 100 nM Antigen Bound (RU) [3]: 50 RU | Kd [3]: 539 nM | koff [3]: 0.0247 s⁻¹ | kon [3]: 45900 M⁻¹ s⁻¹
Substance: REGN4366 (bispecific antibody)

100 nM Antigen Bound (RU) [4]: 0.5 RU | 100 nM Antigen Bound (RU) [5]: 1.8 RU | 100 nM Antigen Bound (RU) [6]: -0.5 RU
Substance: REGN1945 (antibody)
